These results are taken from US20040097586A1, “Anti-tumor compounds” (priority 2001, published 2004).

Peptide text beside a SMILES is read from it.

The format of data set [1] is in vitro ADME, human. As to the method:
The stability of this prodrug in whole human blood was determined, and its activation into the DNR-D-tetrapeptide (or any other positively charged derivative) was checked after incubation in the presence of human cancer cells conditioned media. Breast (MCF-7, MDA-MB-231), colon (LS-174-T), prostate (LNCaP) and lung (COR-L23, NCl-H69) cancer cell lines were used. Metabolites were analyzed by reverse phase-high pressure liquid chromatography (RP-HPLC), and fluorescence detection was used to identify and quantify the DNR derivatives generated over time. […] This particular prodrug is suitable for the in vivo validation of the concept.

For data set [2], the system named is tumor-bearing mice. Nature of the data set: Tissue distribution studies in tumor-bearing mice. Type of data set: in vivo. The conditions noted are these: i.v., plasma and tissues, RP-HPLC. As to the method: Mice bearing the same tumor types used for efficacy studies were used. They were injected i.v. with the prodrug, and anesthetized at selected time points. Plasma and tissues (tumor, liver, kidney, spleen, heart, lung and skeletal muscle) were recovered, snap frozen in liquid nitrogen and stored at −80° C. The prodrug and its metabolites were then extracted and quantified by RP-HPLC with fluorescence detection.

Data set [3] relates to enzyme X. The conditions noted are these: cited from earlier work.
Data set [4] can be described thus: Test of polycationic polymers as procoagulant. The conditions noted are these: commercially available polymer. As to the method:
An alternative to aggregation inducers to form the positively charged ‘particles’ responsible for coagulation is to use polymers such as poly-Lys. […] POIY-D-Lys of different size derivatized with D-amino acids, dipeptides, tripeptides or tetrapeptides on their terminal and side chain free amino groups were prepared (FIG. 5). Their toxicity and procoagulant activities were compared, and interesting candidates were used for the preparation of prodrugs (FIG. 5). N-succinyl-[…]-Ala-L-Leu-L-Ala-L-Leu or PEG-Ala-Leu-Ala-Leu prodrugs were prepared and compared in terms of efficacy and toxicity to the prodrugs based on aggregation inducers as described above. Alternatively, tests were performed using poly-D-Arg.

Data set [5] relates to OF-1 mice. The data set is described as follows: Toxicity/procoagulant activity after intravenous injection. In kind it is in vivo. Conditions: intravenous administration; dose levels as low as. As to the method: N-D-Ala-D-Leu-D-Ala-D-Leu-DNR was injected in the lateral tail vein of OF-1 mice at different dose levels in order to determine the minimal dose that induces acute toxicity and kills the animals in less than an hour following the injection. Animals were injected with this dose level and sacrificed befor death resulting from the injection of the conjugate occurs. Organs and tissues were collected, fixed and prepared for histopathology.

In the case of “N-mPEG350-[…]-Ala-L-Leu-L-Ala-L-Leu-D-Ala-D-Leu-D-Ala-D-Leu-DNR”, in data set [1], the “metabolite formed upon incubation in cancer cells conditioned media” value is “yielded the positively-charged N-L-Leu-D-Ala-D-Leu-D-Ala-D-Leu-DNR derivative” and the “stability in whole human blood” value is recorded as “relatively stable”. The “tissue distribution: site of metabolite generation” value in data set [2] is on record as “generation of a positively-charged procoagulant metabolite specifically within the tumor”.
Take N-succinyl-[…]-Ala-L-Leu-L-Ala-L-Leu: in data set [3], the “substrate quality for enzyme X” value is “optimal substrate”.
As to Poly-D-Lys, the “test as procoagulant polymer” value in data set [4] is “positively tested”.
On to `COc1cccc2c1C(=O)c1c(O)c3c(c(O)c1C2=O)C[C@@](O)(C(=O)CO)C[C@@H]3O[C@H]1C[C@H](NC(=O)[C@@H](CC(C)C)NC(=O)[C@@H](C)NC(=O)[C@@H](CC(C)C)NC(=O)[C@@H](C)N)[C@H](O)[C@H](C)O1` [N-D-Ala-D-Leu-D-Ala-D-Leu-doxorubicin] (HELM PEPTIDE1{[dA].[dL].[dA].[dL].[COc1cccc2c1C(=O)c1c(O)c3c(c(O)c1C2=O)C[C@@](O)(C(=O)CO)C[C@@H]3O[C@H]1C[C@H](N[*:1])[C@H](O)[C@H](C)O1]}$$$$V2.0; N-terminus and C-terminus assumed), for which the “dose level inducing disseminated intravascular blood clotting” value in data set [5] was found to be 34.5 µmol/kg.
With `COc1cccc2c1C(=O)c1c(O)c3c(c(O)c1C2=O)C[C@@](O)(C(C)=O)C[C@@H]3O[C@H]1C[C@H](NC(=O)[C@@H](CC(C)C)NC(=O)[C@@H](C)NC(=O)[C@@H](CC(C)C)NC(=O)[C@@H](C)N)[C@H](O)[C@H](C)O1` [N-D-Ala-D-Leu-D-Ala-D-Leu-daunorubicin, N-D-Ala-D-Leu-D-Ala-D-Leu-DNR] (HELM PEPTIDE1{[dA].[dL].[dA].[dL].[COc1cccc2c1C(=O)c1c(O)c3c(c(O)c1C2=O)C[C@@](O)(C(C)=O)C[C@@H]3O[C@H]1C[C@H](N[*:1])[C@H](O)[C@H](C)O1]}$$$$V2.0), the “dose level inducing disseminated intravascular blood clotting” value in data set [5] stood at 34.5 µmol/kg.
